Assay results: patent US20100172907A1 (Hoffmann-La Roche, published 2010)
Numbering of substitutions follows the chain as printed. Read-outs that look alike come from different tables or passages of the source. Groups on a side chain read outwards from the residue. No end group written: not given here. NSMP = not defined here

T1: BSA-conjugated Aβ heptapeptide AEFRHDC (C-terminal Cys coupled to NSMP-activated BSA)
T1 construct: also called Peptide 2-7
T1 peptide: AEFRHDC

T2: BSA-conjugated Aβ heptapeptide LVFFAEC (reading uncertain; also: BSA conjugate)
T2 construct: also called Peptide 17-22
T2 peptide: LVFFAEC([NSMP-BSA])

T3: BSA-conjugated Aβ heptapeptide VFFAEDC (C-terminal Cys coupled to NSMP-activated BSA)
T3 construct: also called Peptide 18-23
T3 peptide: VFFAEDC

T4: BSA-conjugated Aβ heptapeptide FFAEDVC (C-terminal Cys coupled to NSMP-activated BSA)
T4 construct: also called Peptide 19-24
T4 peptide: FFAEDVC

B1: MS-R #7.11 IgG1 (antibody, V domains shown)
VH: QVELVESGGGLVQPGGSLRLSCAASGFTFSSYAMSWVRQAPGKGLEWVSAISGSGGSTYYADSVKGRFTISRDNSKNTLYLQMNSLRAEDTAVYYCARGKGNTHKPYGYVRYFDVWGQGTLVTVSS
VL: DIVLTQSPATLSLSPGERATLSCRASQSVSSSYLAWYQQKPGQAPRLLIYGASSRATGVPARFSGSGSGTDFTLTISSLEPEDFATYYCQQVYSPPHTFGQGTKVEIKR
notes: full-length human IgG1
B2: MS-Roche #7.9 Fab (Fab, V domains shown)
VH: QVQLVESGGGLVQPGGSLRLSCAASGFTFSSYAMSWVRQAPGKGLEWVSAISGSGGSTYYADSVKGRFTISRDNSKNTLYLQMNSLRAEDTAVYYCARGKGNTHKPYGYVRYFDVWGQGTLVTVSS
VL: B1 VL with Q90L, V92I, S94N, P95M, H97I
notes: VL entry is that of the H-CDR2 derivative 7.9H7
B3: MS-Roche #8.2.H1 Fab (Fab, V domains shown)
VH: QVQLVESGGGLVQPGGSLRLSCAASGFTFSSYAMSWVRQAPGKGLEWVSAISITGRRKYYADSVKGRFTISRDNSKNTLYLQMNSLRAEDTAVYYCARLLSRGYNGYYHKFDVWGQGTLVTVSS
VL: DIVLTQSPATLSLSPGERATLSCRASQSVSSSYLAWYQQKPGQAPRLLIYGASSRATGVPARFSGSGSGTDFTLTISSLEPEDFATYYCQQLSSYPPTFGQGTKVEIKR
B4: MS-R #7.12 IgG1 (antibody, V domains shown)
VH: B1 VH with A33G, A50N, G56S
VL: DIVLTQSPATLSLSPGERATLSCRASQYVSSPYLAWYQQKPGQAPRLLISGSSNRATGVPARFSGSGSGTDFTLTISSLEPEDFAVYYCLQLYNIPNTFGQGTKVEIKR
notes: full-length human IgG1

Key:
human Aβ (1-40) peptide [1] = molecular target: T5, human Aβ (1-40) peptide (human); assay: SPR, immobilized fibers
T5 construct: also called Aβ1-40 fibers
Experimental: (§1) Biacore2000 and Biacore3000 instruments were used for these measurements. Aβ1-40 and Aβ1-42 fibers were generated in vitro by incubation of synthetic peptides at a concentration of 200 μg/ml in 10 mM Na-acetate buffer (pH 4.0) for three days at 37° C. […] For binders with slow kinetics KD values were calculated by curve fitting of the time-dependent sensor responses, i.e. from the ratio of koff/kₒₙ. Binders with fast kinetics were analyzed by fitting the concentration-dependent sensor responses at equilibrium (adsorption-isotherms). KD values were calculated from the Biacore sensograms based on the total Fab concentration as determined by a protein assay. […] Briefly, time-dependent protein binding to Aβ1-40 fibers immobilized on the Biacore chip was measured during the association phase under mass-limited conditions at different flow rates of the analyte solution.

Aβ (1-42) peptide [2] = molecular target: T6, Aβ (1-42) peptide (human); assay: SPR, immobilized fibers
T6 construct: also called Aβ1-42 fibers; Aβ4
Experimental: as §1

human Aβ (1-40) peptide [3] = molecular target: T5, human Aβ (1-40) peptide; assay: SPR, immobilized fibers; remark: listed apart in the source
Experimental: as §1

Aβ (1-42) peptide [4] = molecular target: T6, Aβ (1-42) peptide; assay: SPR, immobilized fibers; remark: listed apart in the source
Experimental: as §1

[5] = molecular target: T1, BSA-conjugated Aβ heptapeptide AEFRHDC; assay: ELISA
Experimental: (§2) 50 μl of NSMP activated BSA (6.7 mg/ml) was diluted with 50 μl of PBS, 0.1% sodium azide and 10 μl of peptide solution (1 mM in DMSO) was added. As negative control activated BSA was mock-treated without peptide addition. After 4 hrs at room temperature the reaction was stopped by addition of 10 μl of 10 mM Cystein. An aliquot of the conjugate reaction mixture was diluted 1:100 with 0.1M sodium bicarbonate buffer and immediately filled into the wells (100 μl) of ELISA plates (Nunc Immuno-Plate). After standing 16 hrs at 4° C. 100 μl blocking buffer (as above) was added to each well and incubated for another 30 minutes. The plates were washed with 2×300 μl/well TBST (as above) and filled with 100 μl antibody at 10 μg/ml or 2 μg/ml in blocking buffer. The plates were kept 16 hours at 4° C. and washed with 2×300 μl TBST. 100 μl/well HRP-conjugated anti-human Ig H+L (Pierce, dilution 1:1000 with blocking buffer) was added and incubated for 1 hour at ambient temperature. The plates were washed with 3×300 μl/well TBST. Colour development was started by addition of 100 μl tetra-methyl benzidine/hydrogen peroxide reagent.

[6] = molecular target: T2, BSA-conjugated Aβ heptapeptide LVFFAEC; assay: ELISA
Experimental: as §2

[7] = molecular target: T3, BSA-conjugated Aβ heptapeptide VFFAEDC; assay: ELISA
Experimental: as §2

[8] = molecular target: T4, BSA-conjugated Aβ heptapeptide FFAEDVC; assay: ELISA
Experimental: as §2

human Aβ (1-40) peptide [9] = molecular target: T5, human Aβ (1-40) peptide; assay: SPR, immobilized fibers; remark: listed apart in the source
human Aβ (1-40) peptide [10] = molecular target: T5, human Aβ (1-40) peptide; assay: SPR, immobilized fibers; remark: listed apart in the source
Experimental: as §1

Aβ (1-42) peptide [11] = molecular target: T6, Aβ (1-42) peptide; assay: SPR, immobilized fibers; remark: listed apart in the source
Experimental: as §1

human Aβ (1-40) peptide [12] = molecular target: T5, human Aβ (1-40) peptide; assay: SPR, immobilized fibers, equilibrium responses
Experimental: as §1

Aβ (1-42) peptide [13] = molecular target: T6, Aβ (1-42) peptide; assay: SPR, immobilized fibers, equilibrium responses
Experimental: as §1

[14] = molecular target: T1, BSA-conjugated Aβ heptapeptide AEFRHDC; assay: ELISA
Experimental: as §2

[15] = molecular target: T2, BSA-conjugated Aβ heptapeptide LVFFAEC; assay: ELISA
Experimental: as §2

[16] = molecular target: T3, BSA-conjugated Aβ heptapeptide VFFAEDC; assay: ELISA
Experimental: as §2

[17] = molecular target: T4, BSA-conjugated Aβ heptapeptide FFAEDVC; assay: ELISA
Experimental: as §2

Row | Binder | Kd (human Aβ (1-40) peptide [1]) [nM] | Kd (Aβ (1-42) peptide [2]) [nM] | Kd (human Aβ (1-40) peptide [3]) [nM] | Kd (Aβ (1-42) peptide [4]) [nM] | OD ratio 2-7/BSA [5] | OD ratio 17-22/BSA [6] | Peptide-ratio 17-22/2-7 [6] | OD ratio 18-23/BSA [7] | Peptide-ratio 18-23/2-7 [7] | OD ratio 19-24/BSA [8] | Peptide-ratio 19-24/2-7 [8] | also measured
1 | B1 | 2.3 | 5.7 | 2.3 | 5.7 | – | – | – | – | – | – | – | –
2 | B2 | – | – | – | – | 28 | 9 | 0.32 | 13 | 0.46 | 8 | 0.29 | fold improvement of affinity over the MS-Roche-7 parental Fab (human Aβ (1-40) peptide [9]): > 35 fold; Kd (human Aβ (1-40) peptide [10]): 31 nM; Kd (Aβ (1-42) peptide [11]): 93 nM
3 | B3 | – | – | – | – | 22 | 7 | 0.34 | 23 | 1.05 | 20 | 0.94 | Kd (human Aβ (1-40) peptide [12]): 1.6 nM; Kd (Aβ (1-42) peptide [13]): 2.1 nM
4 | B4 | 3.1 | 13.7 | 3.1 | 13.7 | – | – | – | – | – | – | – | OD ratio 2-7/BSA [14]: 19; OD ratio 17-22/BSA [15]: 11; Peptide-ratio 17-22/2-7 [15]: 0.58; OD ratio 18-23/BSA [16]: 13; Peptide-ratio 18-23/2-7 [16]: 0.68; OD ratio 19-24/BSA [17]: 11; Peptide-ratio 19-24/2-7 [17]: 0.58
